From patent publication US20140193378A1 (UNIVERSITY OF MIAMI, published 2014)
Like-named read-outs stand apart in the source and are kept apart here. Non-standard residues stand in square brackets, D forms with d. *: point of attachment. Phe(F5) = N[C@@H](Cc1c(F)c(F)c(F)c(F)c1F)C(=O)O; Desaminotyrosyl = O=C(CCc1ccc(O)cc1)*; Agmatine = N=C(N)NCCCCN*; Nle = CCCC[C@H](N)C(=O)O; Orn = NCCC[C@H](N)C(=O)O; Abu = CC[C@H](N)C(=O)O; GABA = NCCCC(=O)O

T1: human GHRH receptor (human pituitary membrane homogenates) (human, UniProt Q02643 23-423)
T1 construct: whole, on cells; Native receptor in human pituitary membrane homogenates, not on intact cells; also called hGHRH receptor
T1 sequence (looked up): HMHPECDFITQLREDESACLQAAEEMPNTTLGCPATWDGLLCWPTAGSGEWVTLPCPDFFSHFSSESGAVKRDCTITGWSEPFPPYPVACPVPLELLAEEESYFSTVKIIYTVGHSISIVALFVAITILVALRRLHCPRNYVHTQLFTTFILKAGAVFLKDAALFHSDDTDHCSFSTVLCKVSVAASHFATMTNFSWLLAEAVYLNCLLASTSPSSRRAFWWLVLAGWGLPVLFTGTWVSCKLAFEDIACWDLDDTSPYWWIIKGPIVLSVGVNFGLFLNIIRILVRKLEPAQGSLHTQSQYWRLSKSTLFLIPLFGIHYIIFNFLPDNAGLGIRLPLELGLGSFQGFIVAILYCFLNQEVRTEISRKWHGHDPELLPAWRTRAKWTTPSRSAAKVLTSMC


Tests used:
[1] = biological target: T1, human GHRH receptor (human pituitary …); assay: radioligand competition vs 125I-JV-1-42 (0.2 nM), human pituitary membranes
Text: (§1) Normal human pituitaries were purchased from the National Hormone and Peptide Program (A. F. Parlow, Los Angeles, County Harbor-UCLA Medical Center, Torrance, Calif.).

[2] = biological target: T1, human GHRH receptor (human pituitary …); assay: as above; remark: listed apart in the source
Text: as §1

| Relative affinity (Binding potency) vs GHRH [1] | Relative affinity (Binding potency) vs JI-38 [1] | Relative affinity (Binding potency) vs JI-38 [2] | Binder |
| --- | --- | --- | --- |
| 102 fold | 42.7 fold | 8.37 fold | [Desaminotyrosyl][dA]DAIFTQSYR[Orn]VL[Abu]QLSAR[Orn]LLQDI[Nle]D[Agmatine] (SMILES CCCC[C@H](NC(=O)[C@@H](NC(=O)[C@H](CC(=O)O)NC(=O)[C@H](CCC(N)=O)NC(=O)[C@H](CC(C)C)NC(=O)[C@H](CC(C)C)NC(=O)[C@H](CCCN)NC(=O)[C@H](CCCNC(=N)N)NC(=O)[C@H](C)NC(=O)[C@H](CO)NC(=O)[C@H](CC(C)C)NC(=O)[C@H](CCC(N)=O)NC(=O)[C@H](CC)NC(=O)[C@H](CC(C)C)NC(=O)[C@@H](NC(=O)[C@H](CCCN)NC(=O)[C@H](CCCNC(=N)N)NC(=O)[C@H](Cc1ccc(O)cc1)NC(=O)[C@H](CO)NC(=O)[C@H](CCC(N)=O)NC(=O)[C@@H](NC(=O)[C@H](Cc1ccccc1)NC(=O)[C@@H](NC(=O)[C@H](C)NC(=O)[C@H](CC(=O)O)NC(=O)[C@@H](C)NC(=O)CCc1ccc(O)cc1)[C@@H](C)CC)[C@@H](C)O)C(C)C)[C@@H](C)CC)C(=O)N[C@@H](CC(=O)O)C(=O)NCCCCNC(=N)N, also called Peptide 20350) [P-20350 [Dat^1, D-Ala^2, Gln^8, Orn^12, Abu^15, Orn^21, Nle^27, Asp^28, Agm^29]hGHRH(1-29)NH2] |
| 58 fold | 24.4 fold | 13.2 fold | [Desaminotyrosyl][dA]DAI[Phe(F5)]TNSYR[Orn]VL[Abu]QLSAR[Orn]LLQDI[Nle]SR[GABA]-NH2 (SMILES CCCC[C@H](NC(=O)[C@@H](NC(=O)[C@H](CC(=O)O)NC(=O)[C@H](CCC(N)=O)NC(=O)[C@H](CC(C)C)NC(=O)[C@H](CC(C)C)NC(=O)[C@H](CCCN)NC(=O)[C@H](CCCNC(=N)N)NC(=O)[C@H](C)NC(=O)[C@H](CO)NC(=O)[C@H](CC(C)C)NC(=O)[C@H](CCC(N)=O)NC(=O)[C@H](CC)NC(=O)[C@H](CC(C)C)NC(=O)[C@@H](NC(=O)[C@H](CCCN)NC(=O)[C@H](CCCNC(=N)N)NC(=O)[C@H](Cc1ccc(O)cc1)NC(=O)[C@H](CO)NC(=O)[C@H](CC(N)=O)NC(=O)[C@@H](NC(=O)[C@H](Cc1c(F)c(F)c(F)c(F)c1F)NC(=O)[C@@H](NC(=O)[C@H](C)NC(=O)[C@H](CC(=O)O)NC(=O)[C@@H](C)NC(=O)CCc1ccc(O)cc1)[C@@H](C)CC)[C@@H](C)O)C(C)C)[C@@H](C)CC)C(=O)N[C@@H](CO)C(=O)N[C@@H](CCCNC(=N)N)C(=O)NCCCC(N)=O, also called Peptide 25502; MR-502) [P-25502 [Dat^1, D-Ala^2, Fpa5^6, Orn^12, Abu^15, Orn^21, Nle^27, Gab^30]hGHRH(1-30)NH2] |
